Entries after “also recorded” stand apart in the source; their conditions may differ.
Legend:
[1] = target: T1, FPR (Homo sapiens, UniProt P21462); experiment: Migration of ETFR cells; format: cell-based; details: ETFR cells
T1 construct: H. Ali and R. Snyderman (Duke University); host or cells: RBL-2H3 rat basophilic leukemia cells
T1 sequence (P21462 1-350): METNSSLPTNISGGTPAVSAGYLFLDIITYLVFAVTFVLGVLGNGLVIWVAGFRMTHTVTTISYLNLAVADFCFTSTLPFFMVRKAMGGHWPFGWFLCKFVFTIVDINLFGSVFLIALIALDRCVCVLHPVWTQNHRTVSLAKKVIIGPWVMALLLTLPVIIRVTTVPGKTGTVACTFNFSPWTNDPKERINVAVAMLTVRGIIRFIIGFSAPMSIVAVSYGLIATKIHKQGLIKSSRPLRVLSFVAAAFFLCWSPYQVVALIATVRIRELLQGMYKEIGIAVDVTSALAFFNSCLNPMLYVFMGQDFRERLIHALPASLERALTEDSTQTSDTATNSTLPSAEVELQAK

[2] = target: T2, FPRL1 (Homo sapiens, UniProt P25090); format: cell-based; details: FPRL1/293 cells; 100 ng/ml, 37° C., 30 min
T2 construct: expressed in transfected cells; host or cells: HEK 293
T2 sequence (P25090 1-351): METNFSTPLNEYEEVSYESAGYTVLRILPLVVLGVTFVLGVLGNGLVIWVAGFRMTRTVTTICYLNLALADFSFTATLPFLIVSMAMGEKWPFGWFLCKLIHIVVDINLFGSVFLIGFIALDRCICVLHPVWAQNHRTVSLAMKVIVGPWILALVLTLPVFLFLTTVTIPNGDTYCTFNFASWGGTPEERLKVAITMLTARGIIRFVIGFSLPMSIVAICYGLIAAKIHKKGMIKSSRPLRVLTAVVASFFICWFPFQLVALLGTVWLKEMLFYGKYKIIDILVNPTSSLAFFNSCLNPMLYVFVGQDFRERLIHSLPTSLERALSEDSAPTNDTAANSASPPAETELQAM

[3] = test system: monocytes; experiment: Monocyte chemotaxis, 48-well micro-chemotaxis chamber; format: cell-based, human; details: 37° C., 30 min
[4] = test system: CCR5; experiment: CCR5 serine phosphorylation in monocytes (anti-phosphoserine IP, anti-CCR5 immunoblot); format: cell-based, human; details: for MIP-1β-induced CCR5 phosphorylation after preincubation with PKC inhibitor: then MIP-1β 1 min; for serine phosphorylation of CCR5 / time of maximal CCR5 phosphorylation: human monocytes; for serine phosphorylation of CCR5: 37° C.
Method: Monocytes were isolated by counter-flow elutriation from the peripheral blood of normal donors (NIH Clinical Center, Transfusion Medicine Department, Bethesda, Md.) and enriched for mononuclear cells by using counter-flow elutriation. The purity of the cell preparations was examined by morphology after cytospin, and was >90%. The cells were stimulated with different concentrations of chemokines for indicated time periods at 37° C. and lysed for 20 min on ice with periodic mixing in lysis buffer (1% Triton X-100, 20 mM, Tris-HCl pH 8.0, 137 mM NaCl, 15% glycerol, 5 mM EDTA) containing phosphatase and protease inhibitors (1 mM phenylmethylsulfonyl fluoride, 5 μg/ml aprotinin, 5 μg/ml leupeptin, 1 mM sodium orthovanadate, 1 mM EGTA). Cell lysates were precleared with 30 µl of washed Protein-A sepherose beads (Pharmacia Biotech. Piscataway, N.J.), 1 μg of polyclonal anti-phospho-serine antibody (Zymed Laboratory Inc. South San Francisco, Calif.) was added to 200 μg cell lysates diluted with 2×immunoprecipitation (IP) buffer (1×buffer contains 1%Triton X-100, 10 mM Tris-HCl pH 7.4, 137 mM NaCl, 1 mM EDTA, 1 mM EGTA, 0.2 mM sodium orthovanadate, 0.2 mM PMSF, 0.5% NP-40). The reaction mixture was incubated at 4° C. overnight under constant rocking. The immune complex was captured by adding 50 μl of washed Protein-A sepharose beads (25 μl packed beads) and incubation of the reaction mixture at 4° C. for additional 2 hours. The beads were spun down (10 seconds at 14,000 rpm), the pellets were washed 3 times with ice-cold IP buffer, resuspended in 30 μl of 2×Laemmli sample buffer (126 mM Tris-HCl, 20% Glycerol, 4% SDS, 0.005% bromophenol blue with or without addition of 1% 2-mercaptoethanol, Novex, San Diego, Calif.) and boiled for 5 min to elute the immune complex. After electrophoresis on 4-12% SDS-PAGE precast gel (Novex), the proteins were transferred to Immobilon P membranes (Millipore, Bedford, Mass.). The membranes were blocked in freshly prepared PBS containing 3% dry milk 2 h, then were incubated with 1 μg/ml of polyclonal anti-CCR5 antibody (Millenium Biotechnology, Ramona, Calif.) overnight at 4° C. followed by washing 3 times with PBS containing 0.05% Tween 20. The membranes were incubated with a horse radish-peroxidase conjugated goat anti-rabbit IgG (1:5000) (Sigma, St. Louis, Mo.) in PBS containing 3% dry milk for 1 hour at room temperature with agitation. After washing 3 times with PBS-0.05% Tween 20, the membranes were incubated with Super Signal Chemiluminescent Substrate Stable Peroxide Solution (Pierce, Rockford, Ill.) for 1 min, and exposed to BIOMAX-MR film (Eastman Kodak Company, Rochester, N.Y.).
Monocytes stimulated with different concentrations of stimulants for indicated time periods at 37° C. were lysed for 20 min on ice with periodic mixing in lysis buffer [1% Triton X-100, 20 mM Tris-HCl (pH 8.0), 137 mM NaCl, 15% glycerol, 5 mM EDTA] containing phosphatase and protease inhibitors (1 mM phenylmethylsulfonyl fluoride, 5 μg/ml aprotinin, 5 μg/ml leupeptin, 1 mM sodium orthovanadate, 1 mM EGTA). Cell lysates were precleaned with 30 μl of washed Protein A Sepharose beads (15 μl packed beads) at 4° C. for 1 hour and 1 μg of polyclonal anti-phosphoserine antibody was added to 200 μg cell lysates diluted with 2×immunoprecipitation (IP) buffer [1×: 1% Triton X-100, 10 mM Tris-HCl (pH 7.4), 137 mM NaCl, 1 mM EDTA, 1 mM EGTA, 0.2 mM […], 0.2 mM PMSF, 0.5% NP-40]. The reaction mixture was incubated at 4° C. overnight under constant rocking. The immunecomplex was captured by adding 50 μl of washed Protein A sepharose beads (25 μl packed beads) and incubating the reaction mixture at 4° C. for an additional 2 hours. […]

[5] = test system: monocytes; experiment: Ca2+ mobilization of monocytes in response to chemokines after preincubation (heterologous desensitization); format: cell-based, human; details: staurosporine 2.5 ng/ml 30 min
Method: Calcium mobilization was measured by incubating monocytes (2×10^7/ml) in loading medium (DMEM, 10% FCS) with 5 μM Fura-2 AM (Molecular Probes, Eugene, Oreg.) for 30 min at room temperature in the dark. The dye-loaded cells were washed 3 times and resuspended in saline buffer (138 mM NaCl, 6 mM KCl, 1 mM CaCl2, 10 mM Hepes pH 7.4, 5 mM glucose, 0.1% BSA). The cells were then transferred into quartz cuvettes (2×10^6 cells in 2 ml) which were placed in a luminescence spectrometer (LS-50B, Perkin-Elmer, Beaconsfield, UK). Stimulants at different concentrations were added in a volume of 20 μl to each cuvette at the indicated time points. The ratio of fluorescence at 340 and 380 nm was calculated using a FL-WinLab program (Perkin Elmer). To examine the effect of fMLP, monocytes were preincubated with 10^−6 M fMLP or with medium alone for 60 min at 37° C. The cells were thoroughly washed and then were stained with Fura-2 for the calcium mobilization desensitization. The results are representative of at least three experiments performed.
(§1) Calcium mobilization was measured by incubating 2×10^7/ml cells in loading medium (DMEM, 10% FBS) with 5 μM Fura-2 AM (Molecular Probes, Eugene, Oreg.) for 30 min at room temperature in the dark. The dye-loaded cells were washed 3 times with loading medium and resuspended in saline buffer [138 mM NaCl, 6 mM KCl, 1 mM CaCl2, 10 mM HEPES (pH 7.4), 5 mM Glucose, 0.1% BSA] at a concentration of 1×10^6/ml. The cells were then transferred into quartz cuvettes (2 ml) which were placed in a luminescence spectrometer (LS-50B, Perkin-Elmer, Beaconsfield, England). Stimulants at different concentrations were added in a volume of 20 μl to each cuvette at the indicated time points. The ratio of fluorescence at 340 and 380 nm wavelength was calculated using a FL WinLab program (Perkin-Elmer).

[6] = test system: monocytes; experiment: Ca2+ mobilization in monocytes (Fura-2); format: cell-based, human
Method: as §1
Calcium mobilization was assayed by incubating 2×10^7/ml of monocytes, neutrophils, FPRL1 or FPR transfectants in loading buffer containing 138 mM NaCl, 6 mM KCl, 1 mM CaCl2, 10 mM HEPES (pH 7.4), 5 mM glucose, 0.1% BSA with 5 μM Fura-2 (Sigma) at 37° C. for 30 min. The dye-loaded cells were washed and resuspended in fresh loading buffer. The cells were then transferred into quartz cuvettes (10^6 cells in 2 ml) which were placed in a luminescence spectrometer LS50 B (Perkin-Elmer Limited, Beaconsfield, England). Stimulants at different concentrations were added in a volume of 20 μl to the cuvettes at indicated time points. The ratio of fluorescence at 340 and 380 nm wavelength was calculated using the FL WinLab program (Perkin-Elmer).

[7] = test system: CCR5; experiment: Surface expression of CCR5 on monocytes by flow cytometry; format: cell-based, human; details: FITC-anti-CCR5 2D7
Method: The change of surface expression of CCR5 on monocytes was monitored by FACS analyses (courtesy of L. […] The cells were then washed twice with DPBS containing 2% BSA and fixed with 1% Paraformaldehyde (Sigma). The fluorescence was measured by flow cytometer (Becton Dickinson, San Jose, Calif.). Results are presented as the percentage of cells stained with anti-CCR5 antibody.

[8] = test system: CCR5; format: cell-based, human; details: HOS/CD4/CCR5 cells co-expressing FPR

pertussis toxin
W peptide induced migration after pretreatment of the cells [1]: inhibited | W peptide induced migration after pretreatment of the cells [2]: inhibited | chemotaxis response to V3 peptide after preincubation of the cells ([3]; human phagocytes, 100 ng/ml): inhibited | migration in response to W peptide after pretreatment of the cells ([3]; phagocytes, 100 ng/ml toxin): completely inhibited

CN[C@@H]1C[C@H]2O[C@@](C)([C@@H]1OC)n1c3ccccc3c3c4c(c5c6ccccc6n2c5c31)C(=O)NC4 [staurosporine]
MIP-1β-induced CCR5 phosphorylation after preincubation with PKC inhibitor ([4]; monocytes): did not affect | V3 peptide-induced CCR5 phosphorylation after pretreatment with PKC inhibitor ([4]; monocytes, staurosporine 2.5 ng/ml 30 min, then V3 peptide 1.5 μM 60 min): no longer significantly induced phosphorylation of CCR5 | Ca2+ mobilization in response to RANTES or SDF-1α after PKC inhibitor followed by V3 peptide [5]: almost normal Ca^2+ mobilization

calphostin C
MIP-1β-induced CCR5 phosphorylation after preincubation with PKC inhibitor ([4]; monocytes): little effect | fMLP-induced CCR5 phosphorylation after preincubation with PKC inhibitor ([4]; monocytes, calphostin C 50 ng/ml 2.5 h, then fMLP 10^−6 M 60 min): markedly reduced

SDF-1α
Ca2+ mobilization [6]: significant Ca^2+ mobilization

MCP-1: chemokine
Ca2+ mobilization [6]: significant Ca^2+ mobilization

T20/DP178: synthetic peptide corresponding to a region in the C-terminus of the ectodomain of gp41
serine phosphorylation of CCR5 [4]: significant and dose-dependent phosphorylation of CCR5

B1: MIP-1β: chemokine, CCR5 agonist (protein)
chain: APMGSDPPTACCFSYTARKLPRNFVVDYYETSSLCSQPAVVFQTKRSKQVCADPSESWVQEYVYDLELN
expression of CCR5 on the cell surface [7]: downregulated | Ca2+ mobilization [6]: poor inducer of Ca^2+ flux | time of maximal CCR5 phosphorylation [4]: 1 min | serine phosphorylation of CCR5 [4]: rapidly phosphorylated

B2: RANTES: chemokine that activates multiple receptors including CCR5 (protein, UniProt P13501 24-91, looked up)
C-C motif chemokine 5: SPYSSDTTPCCFAYIARPLPRAHIKEYFYTSGKCSNPAVVFVTRKNRQVCANPEKKWVREYINSLEMS
expression of CCR5 on the cell surface [7]: downregulated | Ca2+ mobilization [6]: induced a transient rise in Ca^2+; also recorded: significant Ca^2+ mobilization | time of maximal CCR5 phosphorylation [4]: 1 min | serine phosphorylation of CCR5 [4]: rapidly phosphorylated

B3: MIP-1α: chemokine that activates multiple receptors including CCR5 (protein, UniProt P10147 24-92, looked up)
C-C motif chemokine 3: SLAADTPTACCFSYTSRQIPQNFIADYFETSSQCSKPGVIFLTKRSRQVCADPSEEWVQKYVSDLELSA
phosphorylation of CCR5 [8]: induced an increase in phosphorylation of CCR5 | expression of CCR5 on the cell surface [7]: downregulated | Ca2+ mobilization [6]: induced a transient rise in Ca^2+ | time of maximal CCR5 phosphorylation [4]: 1 min | serine phosphorylation of CCR5 [4]: rapidly phosphorylated

B4: SAA: serum amyloid A, recombinant, purchased from Pepro Tech (protein, UniProt P0DJI8 19-122, looked up)
Serum amyloid A-1 protein: RSFFSFLGEAFDGARDMWRAYSDMREANYIGSDKYFHARGNYDAAKRGPGGAWAAEVITDARENIQRFFGHGAEDSLADQAANEWGRSGKDPNHFRPAGLPEKY
serine phosphorylation of CCR5 [4]: significant and dose-dependent phosphorylation of CCR5

— patent publication US6808877B2, “Ligands for FPR class receptors that induce a host immune response to a pathogen or inhibit HIV infection” (priority 2000, dated 2004)
